Earlier results on one substance are cited in publication PMC8291714.

The data set addresses N protein (N-RNA ring) (Rabies lyssavirus) (UniProt Q8JXF6).
Sequence of UniProt Q8JXF6 (Q8JXF6 whole entry): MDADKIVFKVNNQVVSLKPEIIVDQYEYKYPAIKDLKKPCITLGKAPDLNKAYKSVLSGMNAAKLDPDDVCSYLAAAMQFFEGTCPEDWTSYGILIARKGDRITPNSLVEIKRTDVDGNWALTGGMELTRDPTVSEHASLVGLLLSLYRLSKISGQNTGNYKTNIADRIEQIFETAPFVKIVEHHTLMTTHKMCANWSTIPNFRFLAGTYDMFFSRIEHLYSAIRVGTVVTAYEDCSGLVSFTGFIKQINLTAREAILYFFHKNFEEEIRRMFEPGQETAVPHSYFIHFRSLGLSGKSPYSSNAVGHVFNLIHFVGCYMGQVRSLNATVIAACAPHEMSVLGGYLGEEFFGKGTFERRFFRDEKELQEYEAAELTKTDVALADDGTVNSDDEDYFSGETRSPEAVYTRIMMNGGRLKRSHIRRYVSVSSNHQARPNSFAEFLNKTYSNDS

P protein CTD (from UniProt P22363): the Kd (usually the equilibrium constant for the complex coming apart) was 160 nM.
